Assay: yeast display, Sf9 membrane polyspecificity reagent, FACS + sequencing; frameworks hold sequencing errors
How it was run: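 A synthetic nanobody library was expressed on Saccharomyces cerevisiae BJ5465 by galactose induction for 36–48 hours. The library was stained for 1 hour at 4 °C with 10% biotinylated, detergent-solubilized Sf9 membrane reagent and enriched with streptavidin microbeads before FACS. Low and high (top ~1%) gates were set on anti-HA fluorescence for expression and streptavidin fluorescence for reagent binding, and each polyreactivity label reflects the gate of origin.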
For “QVQLVESGGGLVQAGGSLRLSCAASGRIFDEYALGWYRQAPGKEREFVAAITYSAGSTYYADSVKGRFTISRDNAKNTVYLQMNSLKPEDTAVYDCAADRYYWWWYTYNYWGQGTQVTVSS”, the “polyreactivity (PSR sort gate)” value was “low polyreactivity”.
In the case of “QVQLVESGGGLVQAGGSLRLSCAASGRIFDEYAMGWYRQAPGKERELVAAITSDGTTNYADSVKGRFTISRDNAKNTVYLQMNSLKPEDTAVYYCNAARPQSEPASQLDLYGYDYWGQGTQVTVSS”, the “polyreactivity (PSR sort gate)” value is reported as “low polyreactivity”.
With “QVQLVESGGGLVQAGGSLRLSCAASGRIFDFNAMGWYRQAPGKERELVAAITWSGTSTYYADSVKGRFTISRDNAKNTVYLQMNSLKPEDTAVYYCAVDYSPWWAFSYSDYYYWGQGTQVTVSS” the “polyreactivity (PSR sort gate)” value was “high polyreactivity”.
With “QVQLVESGGGLVQAGGSLRLSCAASGRIFDFYAMGWYRQAPGKERELVAAISWDGSDTYYADSVKGRFTISRDNAKNTVYLQMNSLKPEDTAVYYCAADYYSPSGQEYNYWGQGTQVTVSS” the “polyreactivity (PSR sort gate)” value was “high polyreactivity”.
With “QVQLVESGGGLVQAGGSLRLSCAASGRIFDGNALGWYRKAPGKERELFAAISWTGGSTYYADSVKGRYTISRDNAKNTVYLQLNSLKPEDTAVYYCAADSGWWLDQLSWYDYWGQGTQVTVSS” the “polyreactivity (PSR sort gate)” value was “low polyreactivity”.
For “QVQLVESGGGLVQAGGSLRLSCAASGRIFDGNAMGWYRQAPGKERELVAAISRIGGTYYADSVKGRFTISRDNAKNTVYLQMNSLKPEDTAVYYCAADPSSVGYHVEYDYWGQGTQVTVSS”, the “polyreactivity (PSR sort gate)” value was “low polyreactivity”.
In the case of “QVQLVESGGGLVQAGGSLRLSCAASGRIFDGNAMGWYRQAPGKERELVATITRGGRTNYADSVKGRFTISRDNAKNTVYLQMNSLKPEDTAVYYCNARGSERVDTYSLYDYWGQGTQVTVSS”, the “polyreactivity (PSR sort gate)” value is reported as “low polyreactivity”.
In the case of “QVQLVESGGGLVQAGGSLRLSCAASGRIFDGNVMGWYRQAPGKERELVAAISRSGVRTYYADSVKGRFTISRDNAKKTVYLQMNSLKPEDTAVYYCAADVYRQFYPFKSDYWGQGTQVTVSS”, the “polyreactivity (PSR sort gate)” value is reported as “high polyreactivity”.
For “QVQLVESGGGLVQAGGSLRLSCAASGRIFDIYAMGWYRQAPGKERELVAAIDESGGSTYYADSVKGRFTISRDNAKNTVYLQMNSLKPEDTAVYYCATDDTWTISYGWYWFTYEYWGQGTQVTVSS”, the “polyreactivity (PSR sort gate)” value was “low polyreactivity”.
For “QVQLVESGGGLVQAGGSLRLSCAASGRIFDIYAMGWYRQAPGKERELVAAITNSGVSTYYADSVKGRFTISRDNAKNTVYLQMNSLKPEDTAVYYCNAGDFERAVVVFIQHGGYYWGQGTQVTVSS”, the “polyreactivity (PSR sort gate)” value was “low polyreactivity”.
For “QVQLVESGGGLVQAGGSLRLSCAASGRIFDIYAMGWYRQAPGKERELVAGITSVGSTNYADSVKGRFTISRDNAKNTVYLQMNSLKPEDTAFYYCAADTSVHSEVDYWGQGTQGTVSS”, the “polyreactivity (PSR sort gate)” value was “low polyreactivity”.
For “QVQLVESGGGLVQAGGSLRLSCAASGRIFDKNAMGWYRQAPGKERELVAAINRSGGRTYYADSVKGRFTISRDNAKNTVYLQMNSLKPEDTAVYYCAADTQGSRYDYWGQGTQVTVSS”, the “polyreactivity (PSR sort gate)” value was “high polyreactivity”.
For “QVQLVESGGGLVQAGGSLRLSCAASGRIFDLNAMGWYRQAPGKERELVAAITWSGDSTYYADSVKGRFTISRDNAKNTVYLQMNSLKPEDTAVYYCAAASRTSYSWVDYEFDYWGQGTQVTVSS”, the “polyreactivity (PSR sort gate)” value was “low polyreactivity”.
In the case of “QVQLVESGGGLVQAGGSLRLSCAASGRIFDLYAMGWYRQAPGKERELVASITTIGGRTYYADSVKGRFTISRDNAKNTVYLQMNSLKPEDTAVYYCAKSRWLYTTRSGYDYWGQGTQVTVSS”, the “polyreactivity (PSR sort gate)” value is reported as “high polyreactivity”.
In the case of “QVQLVESGGGLVQAGGSLRLSCAASGRIFDLYTMGWYRQAPGKERELVAAIRWSDGSTYYADSVKGRFTISRDNAKNTVYLQMNSLKPEDTAVYYCATDTAILINFVLYDYWGQGTQVTVSL”, the “polyreactivity (PSR sort gate)” value is reported as “low polyreactivity”.
For “QVQLVESGGGLVQAGGSLRLSCAASGRIFDNYGMGWYRQAPGKERELVAAISSGGGRYYADSVTGRFTISRDNAKNTVYFQMHSLKPEDTAVYYCAKDPKYHLSGGYDYWGQGTQVTVSS”, the “polyreactivity (PSR sort gate)” value was “low polyreactivity”.
With “QVQLVESGGGLVQAGGSLRLSCAASGRIFDNYGMGWYRQAPGKERELVAAISSGGGTYYADSVKGRFTISRDNAKNTVYLQMNSLKPEDTAVYYCAKRRVYDRSFGRYDYWGQGTQVTVSS” the “polyreactivity (PSR sort gate)” value was “low polyreactivity”.
With “QVQLVESGGGLVQAGGSLRLSCAASGRIFDNYVMGWYRQAPGKERELVAAISSGGGTYYADSVKGRFTISRDNAKNTVYLQMNSLKPEDTAVYYCAKRRVYDRSFGRYDYCGQGTQVTVSS” the “polyreactivity (PSR sort gate)” value was “low polyreactivity”.
With “QVQLVESGGGLVQAGGSLRLSCAASGRIFDNYVMGWYRQAPGKERELVAAISSGGGTYYADSVKGRFTISRDNAKNTVYVQMNSLKPEDTAVYYCAKRRVYDRSFGRYDYWGQGTQVTVSS” the “polyreactivity (PSR sort gate)” value was “low polyreactivity”.
In the case of “QVQLVESGGGLVQAGGSLRLSCAASGRIFDPNVMGWYRQAPGKERELVAAIRTSGGRTYYADSVKGRFTISRDNAKNTVYLQMHSLKPEDTAVYYCAKVNRAFPKYLIYGYWGQGTQVTVSS”, the “polyreactivity (PSR sort gate)” value is reported as “high polyreactivity”.
In the case of “QVQLVESGGGLVQAGGSLRLSCAASGRIFDPYAMGWYRQAPGKERELVAAIDWSDGGTYYADSVKGRFTISRDNAKNTVYLQMNSLKPEDTAVYYCAADLLDISYYDGMDYWGQGTQVTVSS”, the “polyreactivity (PSR sort gate)” value is reported as “low polyreactivity”.
In the case of “QVQLVESGGGLVQAGGSLRLSCAASGRIFDQNAMGWYRQAPGKDRELVAAISSSGGRTYYADSVKGRFTISRDNAKNPVYLQMNSLKPEDTAVYYCNKDRTVTTYEYWGQGTQVTVSS”, the “polyreactivity (PSR sort gate)” value is reported as “high polyreactivity”.
In the case of “QVQLVESGGGLVQAGGSLRLSCAASGRIFDRKAMGWYRQAPGKERELVAAISSRDGSTYYADSVKGRFTISRDNAKNTVYLQMNSLKPEDTGVYYCNRVSRGPVGGYYWGQGTQVTVSS”, the “polyreactivity (PSR sort gate)” value is reported as “high polyreactivity”.
With “QVQLVESGGGLVQAGGSLRLSCAASGRIFDRNAMGWYRQAPGKERELVAAIDDSGGDTSYADSVKGRFTISRDNAKNTVYLQMNSLKPEDTAVYYCNAGYADFVTYPRYYYWGQGTQVTVSS” the “polyreactivity (PSR sort gate)” value was “low polyreactivity”.
For “QVQLVESGGGLVQAGGSLRLSCAASGRIFDRYAIGWYRHAPGKERELVAAITSGGDTNYADSVKGRFTISRDNAKITVYLPKNSLKPEDTAVYYCNTRLVLGGGRRHDYWGQGTQVTVSS”, the “polyreactivity (PSR sort gate)” value was “low polyreactivity”.
With “QVQLVESGGGLVQAGGSLRLSCAASGRIFDRYALGWYRQAPGTERELVAVISQSGGRTYYADSVKGRFTISRDNAKNTVYLEMNSLKPEDSAVYYCNKRYRNRYSYSEGDYWGQGTQVTVSS” the “polyreactivity (PSR sort gate)” value was “high polyreactivity”.
For “QVQLVESGGGLVQAGGSLRLSCAASGRIFDSYAMGWYRQAPGKERELVATISWDSASTYYADSVKGRFTISRDYAKNTVYLQMNSLKPEDTAVYYCAAGGSSSWAFNYWGQGTQVTVSS”, the “polyreactivity (PSR sort gate)” value was “low polyreactivity”.
In the case of “QVQLVESGGGLVQAGGSLRLSCAASGRIFDVNAMGWYRQAPGKERELVAAINKSGGTTYYADSVKGRFTISRDNAKNTVYLQMYSLKPEDTAVYYCAADSYSSRYDYWGQGTQVTVSS”, the “polyreactivity (PSR sort gate)” value is reported as “high polyreactivity”.
With “QVQLVESGGGLVQAGGSLRLSCAASGRIFDVNAMGWYRQAPGKERELVAAITDSDGSTYYADSVKGRFTISRDNAKNTVYLQMNSLKPEDTAVYYCAATQEPVTPQPYGYWGQATQVTVSS” the “polyreactivity (PSR sort gate)” value was “low polyreactivity”.
For “QVQLVESGGGLVQAGGSLRLSCAASGRIFDYNAMRRYRQAPGKERELVAAINSGGSTYADSVKGRFTISRDNAKNTVYLQMNSLKPEDTGVYDCAKSLGQTVWEYDSWGQGTQVTVSS”, the “polyreactivity (PSR sort gate)” value was “low polyreactivity”.

Source: the nanobody polyreactivity screen of Harvey et al. (2022)
